What was measured:
Assay type in all cases: physicochemical
[1] = SEC-MALS purification and analysis on Superdex 75
Protocol: To perform a further test for the presence of seeds, and determine whether the detected oligomers affected the self-assembly kinetics, Aβ(1-42) samples were purified by SEC, and their self-assembly kinetics were compared to those of unpurified samples. In summary, following the protocol used by Hellstrand et al.,[39] […] The fraction eluting from 13.6 to 14.6 min (at 1 mL/min) was collected on ice, diluted variably (60, 80, or 100%, i.e., undiluted) in the elution buffer to give a range of concentrations, supplemented with ThT from a concentrated stock, and used in ThT assays. This purification procedure was repeated several times with reproducible results, and a representative elugram is shown in Figure 6a. The UV absorbance and RI elugrams are very similar to those previously reported for in-house recombinant peptide purified according to the same protocol,[39] and the peak at ∼14 min has already been identified as the monomer. MALS analysis of the ROI from 13.6 to 14.6 min was challenging, as the very weak scattering signal meant that the Mw estimates were particularly sensitive to baseline subtraction errors. Nonetheless, the average Mw value of this ROI across three concordant replicates was 6460 ± 712 Da, where the error margins represent one standard deviation, consistent with the peak containing mostly monomer with a small but significant amount of contaminating oligomer. […] Samples were analyzed and purified in small batches using an analytical Superdex 75 column (GE Healthcare) equilibrated in 20 mM sodium phosphate buffer (pH 8) with 200 μM EDTA and 1 mM NaN3. The column was run with the TIP pump from the AF4 system (Postnova Analytics, Landsberg am Lech, Germany), and in-line UV (280 nm; Shimadzu, U.K.), MALS (Postnova Analytics, Landsberg am Lech, Germany), and RI (Postnova Analytics, Landsberg am Lech, Germany) detectors. The RI detector was purged following equilibration, and the UV and RI detectors were then zeroed. The sample was injected, with an injection volume of 50 μL, and run at 1.0 mL/min for 35 min. Between sample runs, blanks consisting of the same solvent without the Aβ(1-42) were loaded to check that the column was clean and to allow blank subtraction of the detector signals. Data processing and estimation of sample concentration, molecular weight, and recovery were carried out in the AF2000 Control software (Postnova Analytics, Landsberg am Lech, Germany), with final data processing in GraphPad Prism version 8.3.0. For preparative runs, the sample was collected at the end. […] Eluted Aβ was mixed and split into three aliquots; these were then diluted to 60, 80, or 100% (i.e., undiluted) their concentration in the same elution buffer and supplemented with 20 μM ThT from a 2 mM stock, as described in Hellstrand et al.[39] […]

[2] = Storage stability at −80 °C (ThT half-time against storage time)
Description: To more quantitatively assess this stability, the mean fibrillization half-time τhalf of each ThT experiment was plotted against the storage time of the corresponding aliquot.
Each point corresponds to the average fibrillization half-time of a single ThT experiment; the error bars, which in some cases are too small to show, represent a single standard deviation. The fitted curve is an exponential decay of the form τhalf = τhalf^′e^–kmodt, where τhalf is the self-assembly half-time, τhalf^′ is the half-time prior to the effects of storage, kmod is the proportional rate of change of τhalf during storage, and t is the storage time. See text for values of the fitted parameters and Table S2 for the correspondence between the color scheme and sample ID.

[3] = Removal of HMW material by ultracentrifugation, AF4-MALS and ThT; conditions: for integrated HMW UV signal after cross-flow, equivalent mass of Aβ(1-42): 200 µl injected
Protocol: 4 S3 Removal of HMW material from 50 mM NaOH Aβ
5 preparations by ultracentrifugation
8 that attempts to remove any putative seed or oligomers had no impact on the self-assembly 9 kinetics. To complement this, and further explore the nature of the HMW contaminant that 10 eluted after cross-ﬂow in AF4 runs, we removed the HMW material by ultracentrifugation 11 and examined the eﬀect on the self-assembly kinetics. Firstly, an Aβ(1-42) sample was re-12 solubilized to a concentration of 1 mg/ml peptide by sonication for 5 min in 50 mM NaOH.
14 NaOH, centrifuged at 436,000g for 1 h, and examined by AF4-MALS and ThT assays. The 15 dilution was carried out to obtain a suﬃciently large volume for ultracentrifugation. As a 16 control, another aliquot from the same re-solubilized sample was diluted in the same manner, 17 and incubated in a centrifuge tube for the same period of time without ultracentrifugation.
18 Both samples were kept at 21 °C during ultracentrifugation/incubation. For the AF4-MALS 19 experiments, a larger-than-usual injection volume of 200 µl was used to ensure the same mass […]
21 the elugram. For the ThT assays, the buﬀer was pre-adjusted to account for the increased […]
24 the integral of the UV signal after cross-ﬂow; in the control, the integrated HMW signal was […]
26 so the true mass is unknown), whereas in the centrifuged sample the integral was equivalent […]
Similarly, ultracentrifugation caused an approximately 4× reduction
28 in the integral of the LS 90o signal. Although the composition and degree of homogeneity of […]
30 that the majority of this material was removed. Despite removal of this material, the treated […]
One possibility is that the HMW fraction
However, the fact that the full expected 20 µg of
Instead, it may consist of small quantities of dust
36 or pre-existing contaminants in the vials, which were resistant to 50 mM NaOH but had no 37 observable seeding potential. […]
the self-assembly kinetics. Panels show (a) the UV280 signal, (b) the LS 90o signal, (c) the approximate Mw distribution, derived from MALS analysis of the ROI from 3.3-12.0 min using a linear Zimm ﬁtting approach, and (d) the corresponding ThT self-assembly kinetics […]
Color scheme: red, 1 mg/ml sample before dilution (not included in ThT assay); green, 10× diluted 0.1 mg/ml sample, incubated for 1 h before use in experiments; blue, 10× diluted 0.1 mg/ml sample, centrifuged at 436,000g for 1 h and then used in experiments.
(1 picture or pasted object on this page, not shown here)

[4] = 436,000g for 1 h against control

Aβ(1-42): Ultrapure recombinant Aβ(1-42) purchased from rPeptide, lyophilized from HFIP; disordered amyloid-forming peptide
average Mw of the SEC ROI from 13.6 to 14.6 min ([1]; 50 mM NaOH sample, Superdex 75, 20 mM sodium phosphate pH 8, 200 μM EDTA, 1 mM NaN3, 1 mL/min, three concordant replicates, ± SD): 6460 ± 712 Da | total mass of Aβ(1-42) in the fraction collected from 13.6 to 14.6 min ([1]; 50 μL of 1 mg/mL injected, Superdex 75, pH 8): 28.4 ± 7.13 µg | concentration of the collected monomer fraction ([1]; fraction 13.6–14.6 min): 6.29 µM | recovery in the collected monomer fraction ([1]; fraction 13.6–14.6 min, 50 μL of 1 mg/mL injected): 56.8 % of the injected mass | period of stability at −80 °C ([2]; 5 min sonication in 50 mM NaOH, frozen in liquid N2): over 39 days | rate constant kmod of decay of the self-assembly half-time during storage ([2]; 5 min sonication in 50 mM NaOH, stored at −80 °C for 1 to 39 days, exponential fit, not significantly different from 0 (P = 0.3011)): 6.53 × 10^–4 day^–1 | time constant τmod ([2]; storage at −80 °C, from exponential fit): 1530 days | integrated HMW UV signal after cross-flow, equivalent mass of Aβ(1-42) ([3]; 0.1 mg/ml in 5 mM NaOH, centrifuged at 436,000g for 1 h, 21 °C): 0.365 µg | reduction in the integral of the LS 90° signal by ultracentrifugation [3, 4]: approximately 4 × | reduction in the integral of the UV signal after cross-flow by ultracentrifugation [3, 4]: approximately 3 × | integrated HMW UV signal after cross-flow, equivalent mass of Aβ(1-42) ([3]; control: 10× diluted to 0.1 mg/ml in 5 mM NaOH, incubated 1 h at 21 °C without ultracentrifugation): 1.004 µg
